In the supplement of paper PMC10567573:

B1: DFFB (parent)
chain: TLVEAIKEQDGREVDWEYFYGLLF
B2: C2CD2L (parent)
chain: LTLKVLRSSSCGDTELLGQATLPV

Variants of: B1
Assay: protein stability index of a GFP-peptide fusion (GPS, HEK-293T) (PSI 1-6); higher = more stable
Conditions: c terminus: a fixed tail appended
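Also: lentivirally expressed fusions sorted by FACS into six bins by GFP to DsRed ratio, PSI derived from sequencing read proportions per bin multiplied by bin number.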

Protein stability index of substitutions, site by site:
L22: C 2.04 | F 1.52 | Y 1.86 | I 1.97 | W 1.1 | H 2.43 | E 2.51 | V 1.96 | R 1.8 | D 2.62 | Q 2.94 | A 2 | S 2.49 | M 1.85 | P 3.28 | T 2.58
L23: R 2.5 | I 2.24 | M 2.12 | W 2.21 | A 1.86 | E 2.19 | V 1.92 | H 2.07 | C 1.6 | Q 2.37 | S 2.1 | P 2.18 | F 2.26 | Y 2.86 | K 2.03 | D 2
F24: T 2.42 | K 1.79 | E 2.22 | W 1.07 | R 1.63 | Q 2.27 | S 2.52 | C 2.23 | L 1.7 | P 2.53 | N 1.95 | H 2.2 | A 1.69 | D 2.21 | Y 2.31 | I 1.93

Variants of: B2
Assay: as above
Conditions: c terminus: a fixed tail appended

Protein stability index of substitutions, site by site:
Q19: I 4.42 | F 3.05 | M 3.83 | H 2.94 | C 4.52 | G 1.91 | D 1.61 | E 2.86 | K 2.78
V5: K 2.17 | M 1.75 | H 2.27 | D 2.97 | F 1.86 | E 2.82 | R 2.05 | P 2.38 | S 2.11 | T 1.83 | Q 2.3 | L 2.75 | N 2.26 | I 2.08 | Y 2.69 | A 2.3 | G 2.52 | C 1.76
S8: E 1.72 | M 3.9 | N 3.13 | D 1.93 | F 4.03 | W 4.16 | R 3.03
R7: L 3.52 | V 1.85 | C 3.71 | M 2.32 | Q 1.33 | T 2.88 | H 2.61 | E 1.96 | S 1.13 | D 2.02 | A 1.19 | K 3.05 | N 1.19 | G 1.37 | P 2.08
C11: S 3.41 | P 1.34 | A 1.55 | E 1.66 | M 2.48 | L 2.78 | D 1.8 | Y 3.16 | V 2.53 | R 1.9 | I 4.68 | G 2.58 | N 2.04 | T 2.36 | H 1.63 | Q 1.43 | K 2.11
L17: F 2.92 | R 1.35 | T 1.92 | M 1.11 | E 2.7 | C 2.18 | N 3.12 | A 2.08 | K 2.05 | Q 2.1 | V 2.44 | H 1.24 | P 2.15 | D 2.89 | S 1.28 | Y 1.57 | I 2.4 | W 2.04 | G 1.86
T14: Q 1.95 | E 2.58 | S 1.8 | H 2.47 | C 1.79 | D 2.2 | M 2.03 | N 1.91 | P 2.74 | R 2.06 | G 3.33 | A 3.11 | K 1.04 | Y 3.11
G12: D 2.05 | R 2.71 | Q 2.12 | K 2.95 | F 3.92 | I 2.27 | T 1.82 | W 3.06 | N 1.56 | L 2.82 | Y 1.42 | V 1.99 | S 1.92 | M 3.71 | P 1.82 | A 1.66 | H 1.97 | E 1.88
S9: F 2.54 | E 1.1 | A 1.95 | H 2.94 | V 1.09 | L 1.16 | W 3.38 | M 3.09 | C 1.76 | D 1.72 | I 2.11 | P 1.71 | N 1.82 | Q 1.43 | K 1.4 | R 3.44
T2: A 1.66 | D 1.95 | I 2.9 | R 1.64 | W 2.99 | Q 2.93 | P 2.8 | C 2.32 | E 1.92 | Y 2.94 | G 1.93 | H 1.3 | K 2.17
S10: Y 3.53 | M 5.18 | D 2 | L 2.44 | T 3.38 | H 3 | V 3.73 | F 2.93 | P 2.45 | K 3.12 | E 1.75 | N 1.67 | C 3.45 | I 1.76 | Q 1.78 | W 4.07 | A 3.7
L3: A 2.59 | T 2.71 | I 4.28 | K 3.07 | W 2.45 | G 2.16 | E 3.55 | R 2.63 | P 3.51 | F 2.31 | Y 1.59 | N 3.56 | Q 2.87 | C 1.68 | H 2.51 | M 1.46 | D 3.35 | S 2.74
D13: G 4.31 | S 2.38 | P 2.02 | I 3.63 | Y 2.16 | T 3.72 | W 3.58 | R 1.47 | C 3.28 | Q 2.24 | F 3.62 | N 2.85
L6: D 2.47 | T 1.26 | N 2.19 | H 2.13 | P 2.24 | S 1.89 | Q 2.59 | G 1.96 | R 2.03 | Y 3.33 | A 3.16 | E 2.49 | V 3.39 | C 1.69 | F 2.21 | I 2.83 | K 2.17
L1: A 4.09 | E 2.76 | D 3.35 | T 2.04 | C 2.58 | Y 1.77 | F 1 | P 2.9 | M 2.63 | R 2.29 | G 2.56 | Q 2.96 | W 2.67 | I 2.76 | K 1.99 | S 2.74 | N 2.97 | H 2.24
G18: L 3.01 | E 2.26 | C 2.07 | F 2.89 | Q 1.78 | K 1.71 | T 1.18 | V 2.88 | M 2.32 | D 2.28 | R 2.06 | A 1.97 | N 2.11 | Y 1.77 | P 2.11 | H 1.43 | S 1.97
K4: S 1.18 | H 1.65 | F 2.97 | W 2.53 | N 1.19 | P 2.66 | V 2.8 | G 2.46 | E 2.12 | D 1.94 | M 1.06 | C 2.5 | Y 3.27
E15: D 1.41 | N 3.3 | F 3.12 | Q 2.47 | P 2.61 | A 3.85 | S 3.58 | I 3.24 | T 2.83 | Y 2.19 | L 3.22
L16: T 2.01 | Q 1.78 | C 2.07 | H 1.43 | N 1.92 | A 1.79 | V 4.08 | R 1.8 | I 2.19 | F 2.34 | D 2.69 | G 1.97 | Y 1.37 | K 1.9 | P 1.97 | M 1.86 | S 1.72
